One molecule from publication PMC8892516, “Intragenic suppressors unravel the role of the SCREAM ACT-like domain for bHLH partner selectivity in stomatal development” (Proceedings of the National Academy of Sciences of the …, 2022) can be followed below.

In general, Kd refers to the equilibrium constant for the complex coming apart. Higher therefore signals a looser complex.

One test addresses T1, SCRM ACTL (405-494) (Arabidopsis thaliana, UniProt Q9LSE2 405-494).
T1 construct: SCREAM (SCRM, ICE1), Arabidopsis thaliana, At3G26744, ACT-like domain, residues 405-494; also called SCRM ACTL domain; source: E. coli BL21, purified (glutathione resin, thrombin, Superdex-200); not shown: GST, N-terminal, cleaved
T1 sequence (looked up): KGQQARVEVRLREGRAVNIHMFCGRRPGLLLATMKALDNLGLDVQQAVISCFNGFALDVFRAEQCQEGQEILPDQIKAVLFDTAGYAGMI
In words: ITC; Malvern PEAQ-ITC, 25 °C, PBS pH 7.4; 150 μM SCRM ACTL/SCRM L484F ACTL injected into 15 μM SPCH ACTL/MUTE ACTL. The following applies: both partners purified. A general note: In ITC the heat of successive injections is recorded.

The target of test [1] is T2, SCRM ACTL_(L484F) (405-494) (Arabidopsis thaliana, UniProt Q9LSE2 405-494, L484F).
T2 construct: SCREAM (SCRM, ICE1), Arabidopsis thaliana, At3G26744, ACT-like domain, residues 405-494, L484F (printed L485F in the methods); results, legends and the ITC methods print L484F; the cloning, CD and modelling methods print L485F; also called SCRM-ACTL_(L485F); SCRM L484F ACTL; source: E. coli BL21, purified (glutathione resin, thrombin, Superdex-200); not shown: GST, N-terminal, cleaved
T2 sequence (looked up): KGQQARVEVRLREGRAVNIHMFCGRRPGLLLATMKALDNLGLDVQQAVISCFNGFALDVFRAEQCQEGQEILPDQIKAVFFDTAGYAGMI
Described as above. As to conditions: both partners purified.

B1: SPCH-ACTL (285-364) (domain or fragment, Arabidopsis thaliana, UniProt Q700C7 285-364, looked up)
chain: LADVEVKFSGANVLLKTVSHKIPGQVMKIIAALEDLALEILQVNINTVDETMLNSFTIKIGIECQLSAEELAQQIQQTFC
notes: source: E. coli BL21, purified (glutathione resin, thrombin, Superdex-200); not shown: GST, N-terminal, cleaved
Take B1: the Kd with SCRM ACTL (405-494) turned out to be 1.2 µM; in test [1] it was 1.7 µM.
